The values below come from a protein production outcome set (Wang et al. 2014).
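Also: failed if final PepcDB status was selected cloned or expressed and not failed if soluble or beyond.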

The series in a line: label from the status in PepcDB records.
For “MTIKTLQYDDFMLYRERIRDLLVQIYDINFDVSHDYSINESNKKINLLDEYIKTNQAVLIGAVDGEKLVGFIWIYKHEYFGETRMHINQIIVDKEYKRKGIGKRLLEEAEKKAKELGIKVIDLFVSEKNAEAVNFYEKTGFVTERRYLKKILLEHHHHHH”, the protein production result is “not failed”.

“MTILDRLTGLAFPAAVLRRAIKLADSGKAAEAFPLMAKAARAGIVDAEYRVARCYLEGAGVPPSRMEGARWLLRAADHGSADAQALLAALYVTGLVTSEADGKGPSEHLFKPDSAGKPDFTAAFDFATKAAEAGSATGQAILGYILTSGPASMRDADAAHRWYEKSASAGCAEGCLGFALSLARRGKRENRVRIAEEVRRAADAGLPTATYLLAVLTEHGLGVARDMAAAAQLYQAAAEKGLPSAQFRLGLALIDGALVGQDVAAGEAWMRRAALAGNIEAAYLLGDRHAKTQRPDFAEAANWYRRAAEAGHQAAARALASLYLTGNGVAEDVEEGARWLRSSASAGNQQAQTDLANLILGGAGEPDDGASVAGWFEAAASSGDLIAAFNLGLCFAKGVGVRQDEGQAAHWLRRAAEGVAEAQYMYARLLQDGRGVAADPTQARVWFARAADAGVLDARVALAEMLLNGRGGMPEPEAAMQLFEQAAADGHAGAMFAIGALYGAGHGLPLDQTTAQKWYAAAAGRGHSQAQFMLGRYLLKGLAGERDPVAARLWLERAAAHGISEAADELGAAGGSD”: the protein production entry is reported as “failed”. In the case of “MTILTRYIAGAYLKILGLCLASFVAIYLVIDFLEKIGRLLRFQPRWIDIIQYFICKLPEIITQVIPLAVLMSTLLTLGMLSRNSEIVAMRGCGVGLGRISAPLIVIAAAVSLLTIFSNEFVLPSSYRQMRYVDQVLIRKQGTNTFFRQNNIWHKDESAIMMARVFDPGRQALRGITLWRFSDGMRPVSRIDAAEGTWDGARWTFKTVTVRGLAGPSVETRTLASLPAELNLKIEDLKVVDKYADNMGFFKLRDYVRKLKAGGYDTTRYEAQMHSKISLPFASLIMAFLGIPFALRGGRSSGVALGITASIGIGFAYFITNSILISFGQTGILPPLISAWAANVLFALSGIWLAMTLDR”, the protein production result is “failed”. Turning to “MTIPKLSPSPESYPESLTFAELGLNAALRKALPTRLKHPTRVQQLAIPAILAGRDLLALSQTGSGKTFAFGLPLLQILWQQIAVQTTAKSVPAAKPLALVLVPTRELALQVSEALHALASQLSTSAPLNIQLLCGGVALEQQLADLSAKPQLVVATPGRLLDLCTQSHISLDAIKHLVLDEADRLLEMGFWPDMQKLMAMMPKRKQTLLFSATLPEALDSLAGKLLTNDPLKVEASTRNAVVGEIEEQLYLVNKGSKAQALIALLKQYQWPQVLVFISARDDADAIAKRLVKAGINAAALHGEKDQTVRSQTLADFKADRIQVLVATDLMARGIHVDALPVVINLDLPTSAPVYVHRIGRTARAGAKGLAISLVCHGEMPNLTAIRNLTARALPLVFLADFPVTDKPSEKIIDGAENKVIPKRPPRDKQANRRSINKHSVKAFKGKR”, the protein production entry was “failed”. In the case of “MTISNKTLTAAAAGLAAVLAVLLVPALAGQSAHTGHTMPAHTPPAQTAPAAQKAGAQALPVTVQGATVAAVPPSIRDTAAYMTLTNKSDQPIKLVGAATPLATSPMLMTTTHSGGMAGMKMVPWLTIPARGTLTLQRDGDHVMLMGLKRPLKVGETVNITLKATDGRTLNVAATVKKN”, the protein production result is on record as “not failed”.

Consider “MTISQNRNGDDVAVHKFGLFVAKHRKLVLAIAILLLIPSIYGFVTTKVNYDILTYLPKDLESVKGQDILDKEFKQAALSMLIVKGDMNISNIQKLKSKISQVDGVEKVIWIDDFLDPTIPKEMLPDVLKNTFYSKDSTLLLIQFKNSASSLETQNAISKIRKIATAQCFLSGMSAIIKDTRDLSDRETPLYVLVAVVFIFILLLLTMESPIVPILFLTSIGMAIIYNLGTNKFLGEISYITKSLAAVLQLGVTMDFSIFLMHRYDEERKRFDSKEEAMAEAISKTLVAILSSAATAIAGFLALCVMRLRIGADIGIVMAKGVFLGVIGTVTILPALILTFDRAIHKFRLKNILPTFSKTAEFATKYHVVLFVVFLLAFIPAIYGRVNIKEYYNLIDSLPKTIKSVQATDLLKKEYNMTTTHMVLVDRSVPKYQIKNMCEEIKRVKGVEKVLAFDDILGPAIPDEFIPSSVKENFEKGNFKLIMINSIYKSATSEENAQIERIQQIVKKYSKRSYVTGEGVLTKDLVEMADTDLKRVDFISILAIFMIILITFKSISIPLILVLAIELAIFINLAIPYYTNVTVPFIASIVLGTIQLGSAINYAILMTTRFREEIQKGHDRFEAIKIAVKTSSRSVVTSALAFAFSTLAVALIAKIDMIRSLCEMLSRGAVISMIVILFVLPSLLLLFEGAIAKTTFGWRSKEASVKPSEEYETL”, for which the protein production result is recorded as “failed”. As to “MTISRNYDQEIKDTAGHKYAYNFDFDVMHPFMVRAFTPFFRPGNLLELGSFKGDFTSRLQEHFNDITCVEASEEAISHAQGRLKDGITYIHSRFEDAQLPRRYDNIVLTHVLEHIDDPVALLKRINDDWLAEGGRLFLVCPNANAVSRQIAVKMGIISHNSAVTEAEFAHGHRCTYALDTLERDASRAGLQVTYRSGIFFKALANFQWDQILQTDILSKEYLDGCYQLGQQYPDLCASIFLLCEKGINQ”, the protein production result is reported as “not failed”. In the case of “MTITDKNRLTGEADPRRTSLYGPPSMDALTERALHLARAGRALLGIVGEPGAGKSTFAEQLRARLEKERPGLAVTVSMDGFHLAQKVIEARGQAADKGTIDTFDADGFVALLRRTRAETGDTENTESTVWWPEFDRDLEDPVAGSIEVAPHHRLVIVDGNFLLSAQEPWRQVKGLLDETWFLDALPEPRRERLTRRYISYGFTPEAARAKTLGVDEDTSALIRSTVSRADLVIGEARESGGVSDCLEHHHHHH”, the protein production result was “failed”.

In the case of “MTKFNYKSSLYLFNTIFLISLTTLGTMVMIPFAVESKIPKKTSNSISPFCKVLSEKFSPFGAAPDLSVALGKAIAEGGNLNQPCDIFGEKWLPLNFLLSTDEELSQRLIQTGVNVNAKDGKGDTPLHYLGKSEKNARLLLSRGAKVNVGNQNGNTPLHNLFGQKTAYVIKLLIDRGAKVNARNQEQMTPLHFAANSGKADITELLISRGGDVNARSTQNWTPLHYGASNLEVAKKLIQAGADLTIQNREGAVIHSSSLEPAVLKLLLDRGVNVNLRNRQGQTPLHIHRFQPALVKLLLARKAQVNLRDAQGKTPLYDVNLEVARQLVAANADLNVQDNLGRTPLHQAVLEEQSFFGSELVTLFLSKNARVDLKDKQGKTALDLARQLNKTQIINLLERHMATKNSPGSGTSTTKATEQLQQFLKSKNWSAADQETRRLLSPQKDLFGLNAATIPLDLIQEIDRAWLVASDGRFGLSVQAKIWQKVIASHPNNSETAANTFRDRVGWKLKVARTENDFISSDWLNESELNYSLQAPVGHLPWAGVSDASVLSLAVPPPGEHCGSCTIDAMFLRDGRFYKYLPQLFARVKMALNMNVSRPKSLAIAKK”, the protein production entry is “failed”. Turning to “MTKIIKYTNKDNETLYKFRFYAGLDEITGKQRYIRRQGFKSEKDAKTELLKIEYLVSTNQYFKSVKSGKFGDVLDEWLALHKETVKASTWRYIERRVKNHVRPYFKDMYVDKITLRHCQDFTNKAFAAAPVGFTQIISIVKNTLDYALRLGMIESNPMLYVIKPKKQTTISDKHGNYYNKDELKKFLAAAKDTDLKKYTLFRLLAYSGLRVGECLALTWHDLDYKNNTIAINKTYAKTNNGIKIQTPKTKASIRKVSLDVETIQVLKEWQLNQRKQLLKVGINAMNKQQLIFSNNKNSFIANETVRLAIHQIAKKTGIHPITTHGFRHTHATLLFASGMDIKQVQARLGHSNVQTTLNIYTHAIQDKQDKIGDEFAKYINF”, the protein production result was “failed”. Then “MTKKKVYIVSHSHWDREWYLPYEEHHMRLIELVDNVLDLIENDPEFNSFHLDGQTIILDDYLQVRPEKKEAVKKAVQAGKLKIGPFYILQDDFLISSESNVRNMLIGHLESQKWGAPVQLGYFPDTFGNMGQTPQMMQLANLPAAAFGRGVKPIGFDNQVLESDYSSQYSEMWWEGPDQTKIFGLLFANWYSNGNEIPSEKEAAIAFWKQKLADVERYASTNHLLMMNGVDHQPVQRDITKAIALANELFPEYEFIHSNFDDYLKAVQEELPEDLGTVTGELTSQETDGWYTLANTSSARVYLKQWNTKVQRQLENIAEPLAAMAYEVTGDYPHDQFDYAWKTLLQNHPHDSICGCSVDEVHRGMMTRFENANDVGHFLADEATRQLTEAIDTSVFPEKAHPFVLFNTSGYQKTEVVTVEVEIERLPFYTGKPEDLYHELKQKATPDYQVIDPTGKAVASRIVKEDVRFGYDLPKDAFRQPYMAKYLTVELSVKEMAPFSWDSFALIQGETKAFEGSLLAQPATNEMENEFIQVKIENNGSLTIADKKTGETFSKLLTFEDTGDIGNEYIFFKPTEDQGITTENVTAEITNKENSPVKASYQIKQTVMLPVAADERLEEEQKAVREFRERLAQRSTTLRPFEITTMVTMIKESNQLFFETTINNQIKDHRLRVLFPTGMVTETHEADSIYEVVTRPNQVSDTWENPTNPQHQQAFVNVHDQNKGVTIFNEGLNEYEVLADGTIAVTLIRCVGELGDWGYFATPEAQCQGEYTFKYGLSLHGKPEERFATYQQAYSAQIPFTAATTARHEGKLAPNHVYLTTAEGPIGWTAVKRQEQTNHLVVRGFNLTAQNIPCELHKETQPATCLTNVLEEPLTPAIEVDAPLRPFEIRTWRFEK”, with “not failed”. Then “MTKLGYVMTKSSAKNFKIYINGSAKGFKNIIISGAKAWNPSPYLNTVSIGNDVRPNYTVSSSGTNKGSVLAVCNTTYYKSNKLISKNEITLYKGFRSLSTNHKIETIVHEFGHGFGLGHVKTKNAIMLDKGFINKTKPQTDDFNGIKALYKLEHHHHHH”, with “not failed”. For the sequence “MTKNEEGRVRRFVIRYVGSGRVPPCWIAGIFALCWGGVALAGGVALQSVDFTALPSENFQLRLGFDGPVPEPRSFTTEHPARIALDLAGVRSDLDKKPIPVHQAGVETVQAIAAGGRTRVILNLATAVPYTTRVAGRFLYVTLQSGKAGSRADDSASAPVVVTERPVVGGPQVESIDFRRGEKGEGRLLVALSDPNSLINLREEGRSVVADLPGTSLPGRLARRLEVIDFATPVKWVEAMPVGRGARLLITPVSDEYDYSSYQSGKLLTVELRPLSRAEKEEAKKRRLVFAGERLSLNFQDIPVRNVLQILADFTNLNIVASDSVQGSVTLRLNEVPWDEALDLVLKAKGLGKRQEANSNVIRVAPLDEINRSERDELEALKVVEDLEPLRTEIIQINYTKADDIKKVIMGTTEKAEKAITRPEALTGGPGVTSTEAYDVTQSILSSRGNVTTDPRTNQLIVQDTPRNLERIRDLVRQLDKPVRQVMIESRVVIANVDFLRELGAKLDFRPKNLTAAERLNPTGSMADLGVDLAKLTTLSPYGTAQYVVSMGDYLLDLELSAAQKEGRGEIVANPRVLTADQSKAKIMQGVELPYQITQQGTGGGIPVQNVAFKPAVLELDVTPHITPDDHILMDLMVKKDDKGELAPNGNFAIEKREIDTVAQVANGETVVLGGVYEGTRRNNTDKVPFFGDLPGIGFMFRRNAVEDRKKELLIFITPKIVKQTSMTP”, the protein production result is on record as “failed”.

On to “MTKNTRFSPEVRQRAVRMVLESQGEYDSQWATICSIAPKIGCTPETLRVWVRQHERDTGGGDGGLTTAERQRLKEPERENRELRRSNDILRQASAYFAKAEFDRLWKK”, for which the protein production result is “failed”. Take “MTKQSKTQIRICFVGDSFVNGTGDPECLGWTGRVCVNANKKGYDVTYYNLGIRRDTSSDIAKRWLQEVSLRLHKEYNSLVVFSFGLNDTTLENGKPRVSIAETIKNTREILTQAKKLYPVLMISPAPYIEQQDPGRRRRTIDLSQQLALVCQDLDVPYLDVFPLLEKPSVWLHEAKANDGVHPQAGGYTEFARIVENWDAWLNWFR”: the protein production entry is “not failed”. Then “MTKRHVSLPADAKDVRRAFVSGVDERLSAAETPDELATAVTGTLADLRGERDAYEAWRDGDDVRPAAAARLATLDPRNASLESEYYAEKDEAAFARSKPLQWLWRQFDTTPLADNVDVALPFRRMLAGHLFAGVGEDVRLFKGITMTYGHNIELGDNAVVHDGVHLDDRGELVVGARASVSNGAHLYTHDHDVVDQTDVTNYRTEIGADARVTQGALVRAGVRVGENALVGSRSVVQGDVPAHHIAVGSPAESVRVKPGWEAVAAPLDAGLEHHHHHH”, with “not failed”.
